The target in the experiment is Rfa1-AB-Y193D (S. cerevisiae). Put plainly: cell-based or functional assay.

B1: S. cerevisiae Dna2-E675A (nuclease-dead) (enzyme, UniProt P38859 1-1522, looked up)
chain: MPGTPQKNKRSASISVSPAKKTEEKEIIQNDSKAILSKQTKRKKKYAFAPINNLNGKNTKVSNASVLKSIAVSQVRNTSRTKDINKAVSKSVKQLPNSQVKPKREMSNLSRHHDFTQDEDGPMEEVIWKYSPLQRDMSDKTTSAAEYSDDYEDVQNPSSTPIVPNRLKTVLSFTNIQVPNADVNQLIQENGNEQVRPKPAEISTRESLRNIDDILDDIEGDLTIKPTITKFSDLPSSPIKAPNVEKKAEVNAEEVDKMDSTGDSNDGDDSLIDILTQKYVEKRKSESQITIQGNTNQKSGAQESCGKNDNTKSRGEIEDHENVDNQAKTGNAFYENEEDSNCQRIKKNEKIEYNSSDEFSDDSLIELLNETQTQVEPNTIEQDLDKVEKMVSDDLRIATDSTLSAYALRAKSGAPRDGVVRLVIVSLRSVELPKIGTQKILECIDGKGEQSSVVVRHPWVYLEFEVGDVIHIIEGKNIENKRLLSDDKNPKTQLANDNLLVLNPDVLFSATSVGSSVGCLRRSILQMQFQDPRGEPSLVMTLGNIVHELLQDSIKYKLSHNKISMEIIIQKLDSLLETYSFSIIICNEEIQYVKELVMKEHAENILYFVNKFVSKSNYGCYTSISGTRRTQPISISNVIDIEENIWSPIYGLKGFLDATVEANVENNKKHIVPLAVKTGKSRSVSYEVQGLIYTLLLNDRYEIPIEFFLLYFTRDKNMTKFPSVLHSIKHILMSRNRMSMNFKHQLQEVFGQAQSRFELPPLLRDSSCDSCFIKESCMVLNKLLEDGTPEESGLVEGEFEILTNHLSQNLANYKEFFTKYNDLITKEESSITCVNKELFLLDGSTRESRSGRCLSGLVVSEVVEHEKTEGAYIYCFSRRRNDNNSQSMLSSQIAANDFVIISDEEGHFCLCQGRVQFINPAKIGISVKRKLLNNRLLDKEKGVTTIQSVVESELEQSSLIATQNLVTYRIDKNDIQQSLSLARFNLLSLFLPAVSPGVDIVDERSKLCRKTKRSDGGNEILRSLLVDNRAPKFRDANDDPVIPYKLSKDTTLNLNQKEAIDKVMRAEDYALILGMPGTGKTTVIAEIIKILVSEGKRVLLTSYTHSAVDNILIKLRNTNISIMRLGMKHKVHPDTQKYVPNYASVKSYNDYLSKINSTSVVATTCLGINDILFTLNEKDFDYVILDEASQISMPVALGPLRYGNRFIMVGDHYQLPPLVKNDAARLGGLEESLFKTFCEKHPESVAELTLQYRMCGDIVTLSNFLIYDNKLKCGNNEVFAQSLELPMPEALSRYRNESANSKQWLEDILEPTRKVVFLNYDNCPDIIEQSEKDNITNHGEAELTLQCVEGMLLSGVPCEDIGVMTLYRAQLRLLKKIFNKNVYDGLEILTADQFQGRDKKCIIISMVRRNSQLNGGALLKELRRVNVAMTRAKSKLIIIGSKSTIGSVPEIKSFVNLLEERNWVYTMCKDALYKYKFPDRSNAIDEARKGCGKRTGAKPITSKSKFVSDKPIIKEILQEYES
As to B1, the “unwinding of 2.2-kbp-long dsDNA by Dna2-E675A, stimulation by the Rfa1-AB variant, against wild type Rfa1-AB” value was roughly 2.5 fold less efficient.

Source of the values: PMC8586334, “Distinct RPA domains promote recruitment and the helicase-nuclease activities of Dna2” (Nature Communications, 2021).
